Series [1] deals with recurrent and refractory triple-negative breast cancer. Conditions: patients; cited from earlier work.
Series [2] concerns small cell lung cancer. As to conditions: patients, phase II; cited from earlier work.
In series [3] the target is T1, Trop2 antigen (human, UniProt P09758 27-274, limits assumed).
T1 construct: also called human trophoblast cell surface antigen 2; tumor-associated calcium signal transducer 2
T1 sequence (looked up): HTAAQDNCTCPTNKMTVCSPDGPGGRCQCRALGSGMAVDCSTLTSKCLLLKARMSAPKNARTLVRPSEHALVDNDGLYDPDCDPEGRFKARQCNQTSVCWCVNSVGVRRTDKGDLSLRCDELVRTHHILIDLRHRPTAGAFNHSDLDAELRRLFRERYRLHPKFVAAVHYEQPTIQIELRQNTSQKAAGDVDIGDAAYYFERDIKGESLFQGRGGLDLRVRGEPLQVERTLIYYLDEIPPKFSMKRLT
Nature of the series: indirect ELISA, Trop2 antigen coated at 0.1 µg/ml. The procedure:
(§1) A Trop2 antigen was diluted to three dilutions (0.1 μg/mL, 0.2 μg/mL, and 0.4 μg/mL) and coated onto ELISA plates. […] An antigen-antibody reaction curve was determined using an indirect ELISA. […] The unit of Ka is M⁻¹. In this formula, [Ab] represents the antibody concentration corresponding to A=½Amax when the antigen concentration is [Ag]; [Ab]t represents the antibody concentration corresponding to A=½Amax when the antigen concentration is [Ag]t; [Ag] and [Ag]t represent the antigen concentrations; and n is the dilution factor between [Ag] and [Ag]t. (FIG. 7)

Series [4] has as its target T1, Trop2 antigen. Nature of the series: indirect ELISA, Trop2 antigen coated at 0.2 µg/ml. The protocol:
as §1
For orientation: In an ELISA, binding on a coated surface is turned into a signal by an enzyme label.

In series [5] the target is T1, Trop2 antigen. The series can be described thus: indirect ELISA, Trop2 antigen coated at 0.4 µg/ml. The protocol: as §1
Series [6] deals with T1, Trop2 antigen. The series can be described thus: Biacore SPR; antibody amine-coupled to CM5 chip, Trop2 antigen as analyte. The procedure:
Amino of an anti-Trop2 antibody was coupled to a CM5 chip, with pH of 5.0, an antibody concentration of 10 μg/mL, sample injection time of 60 s, and flow rate of 10 μL/min, and a coupling amount of 378.6 RU. […] (FIG. 6)
On the technique in general: In SPR one partner is held on a chip, and binding of the other changes the refractive index at the surface.

Series [7] deals with T1, Trop2 antigen. Nature of the series: indirect ELISA on plates coated with Trop2 antigen at 0.1, 0.2 and 0.4 µg/mL; Ka calculated from the antibody concentrations at half-maximal binding. The procedure: as §1
Series [8] deals with T2, Trop2 (Homo sapiens, UniProt P09758).
T2 sequence (P09758 27-323): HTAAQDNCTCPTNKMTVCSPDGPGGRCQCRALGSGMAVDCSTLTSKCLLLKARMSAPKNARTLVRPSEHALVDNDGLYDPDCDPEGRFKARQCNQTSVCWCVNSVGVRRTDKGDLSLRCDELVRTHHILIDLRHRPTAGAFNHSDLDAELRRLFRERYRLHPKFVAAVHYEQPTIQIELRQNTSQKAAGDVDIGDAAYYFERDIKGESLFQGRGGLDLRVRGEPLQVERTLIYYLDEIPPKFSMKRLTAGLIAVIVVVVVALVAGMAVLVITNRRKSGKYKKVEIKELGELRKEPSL
Nature of the series: antibody titer detected by indirect ELISA. Conditions: FIG. 2. In kind it is binding. The source says:
Hybridoma cell lines for detection was continuously cultured before and after cryopreservation. The antibody titer in the cell supernatant was detected by indirect ELISA.

Series [9] addresses T3, Trop2 antigen (Homo sapiens, UniProt P09758).
T3 sequence (P09758 27-323): T2 sequence (P09758 27-323)
Nature of the series: antibody-antigen affinity analysis by Biacore method. The class given is binding. Conditions: antibody coupled to CM5 chip, FIG. 6. The protocol:
Amino of an anti-Trop2 antibody was coupled to a CM5 chip, with pH of 5.0, an antibody concentration of 10 μg/mL, sample injection time of 60 s, and flow rate of 10 μL/min, and a coupling amount of 378.6 RU. Trop2 antigen at different concentrations (0, 0.814, 1.628, 3.256, 6.512, 13.025, 26.05, and 52.1 μg/mL) was taken for flowing over the chip with a sample injection time of 60 s, flow rate of 30 μL/min, dissociation time of 600 s, and regeneration conditions of glycine-HCl, and pH 1.5 (100 s, 30 μL/min) to obtain Biacore affinity graphs and affinity constant. (FIG. 6)

In series [10] the target is T3, Trop2 antigen. The series can be described thus: antibody-antigen affinity constant by ELISA. The class given is binding. Conditions: indirect ELISA, FIG. 7. The protocol: A Trop2 antigen was diluted to three dilutions (0.1 μg/mL, 0.2 μg/mL, and 0.4 μg/mL) and coated onto ELISA plates. An anti-Trop2 monoclonal antibody was diluted to concentrations of (1, 0.2, 0.04, 0.008, 0.0016, 0.00032, 0.000064, and 0.0000128 μg/mL). An antigen-antibody reaction curve was determined using an indirect ELISA. […] The unit of Ka is M^−1. In this formula, [Ab] represents the antibody concentration corresponding to A=½Amax when the antigen concentration is [Ag]; [Ab]t represents the antibody concentration corresponding to A=½Amax when the antigen concentration is [Ag]t; [Ag] and [Ag]t represent the antigen concentrations; and n is the dilution factor between [Ag] and [Ag]t. (FIG. 7)

The subject of series [11] is BxPC-3. Nature of the series: binding ability of antibody to tumor cells by immunofluorescence. As to conditions: BxPC-3 highly expressing Trop2, immunofluorescence, FIG. 8. In kind it is cell-based. The protocol:
NIH3T3, MDA-MB-231, and BXPC-3 cells were cultured on cell slides at 1×10^4 cells/well and incubated at 37° C. for 24 h. The cells after incubation were fixed with 4% paraformaldehyde for 30 min, followed by washing three times with pre-cooled PBS at 4° C., blocking with 1% BSA in PBST solution at 4° C. overnight, and adding with purified anti-Trop2 antibody at a concentration of 10 μg/mL and incubating at 4° C. overnight. An SP2/0 ascites served as a negative control. The cells were washed three times with PBST pre-cooled to 4° C., added with rhodamine-labeled goat anti-mouse IgG secondary antibody diluted 1:200 at room temperature for incubation for 1.5 h in the dark. The cells after incubation were washed three times with PBST, and one drop of 4′,6-diamidino-2-phenylindole (DAPI) (1 mg/mL) was added to each well for incubation for 10 min. Observations and photographs were taken under a fluorescence microscope. (FIG. 8)

Series [12] concerns Trop2-positive cells HCC-827. The series can be described thus: confocal immunofluorescence, endocytosis of antibody. The class given is cell-based, human. As to conditions: HCC-827, confocal microscopy, FIG. 9. The procedure: HCC-827 cells in logarithmic growth phase were prepared into a single-cell suspension, after cell counting, which was inoculated into a cell slide at 1×10^4 cells/well/200 μL, and then incubated at 37° C. for 24 h. An anti-Trop2 antibody at 10 μg/mL, 200 μL/well, was added. For the binding of antibody to the cell surface, cells were incubated after being added with antibody IMB1636 at 4° C. for 30 min. The cells were collected for washing three times with PBS, fixed with 4% paraformaldehyde (200 μL/well) for 15 min, washed three times with PBST, permeabilized with 0.2% Triton-X100 (200 μL+100 mL PBS) for 10 min, washed three times with PBST, blocked with 5% BSA at 37° C. for 30 min. The cells were added with secondary antibody (goat anti-mouse AF488) at 3 μL+1.5 mL PBST, 200 μL/well, and incubated at 37° C. for 30 min, washed five times with PBST, stained with DAPI for 15 min, washed three times with PBST, and dropwise added with an anti-fluorescence quenching agent for observation under a confocal microscope.
For the case of endocytosis of antibody, cells were added with antibody IMB1636 and incubated at 37° C. for 2 h. […] Other steps were the same as above. Co-localization of antibody IMB1636 with lysosomes was observed. (FIG. 9)

For series [13], the system named is tumor cell membrane that highly expresses Trop2 antigen. The series can be described thus: binding ability of antibody to tumor cells by flow cytometry. In kind it is cell-based. Conditions: FIG. 10. The procedure:
BXPC-3, MDA-MB-231, and NIH 3T3 cells were separately collected at 5×10^6 cells/EP tube, washed with 100 μL of PBS containing 2% FBS pre-cooled to 4° C., and resuspended in 100 μL of PBS containing 2% FBS. Anti-Trop2 antibody at concentrations of 3, 1, 0.3, 0.1, 0.03, 0.01, and 0.003 μg/mL was separately added at 100 μL/tube, with SP2/0 ascite as a negative control. The cells were incubated at 4° C. for 1.5 h, washed with PBS containing 2% FBS, and added with 200 μL of fluorescein isothiocyanate (FITC)-labeled goat anti-mouse IgG secondary antibody (diluted 1:200) for incubation at 4° C. for 1 h in the dark. The cells were washed three times with PBS, and detected by flow cytometry. (FIG. 10)
Background: In flow cytometry, cells or beads pass a laser one at a time.

Series [14] relates to tumor tissues. In kind it is in vivo, mice. The procedure: BXPC-3, MDA-MB-231, and NIH3T3 cells were inoculated in the axilla of mice at 6×10^4 cells/mouse. When the tumor volume reached […], an anti-Trop2 antibody was labeled using a Dylight 680 antibody kit. The anti-Trop2 antibody was injected via tail vein into mice at 20 mg/kg. In vivo imaging was performed at 30 min, 1 h, 2 h, 3 h, 4 h, 6 h, 8 h, 10 h, 12 h, 14 h, 24 h, 30 h, 36 h, 48 h, 60 h, 72 h, 84 h, 96 h, 108 h, 120 h, 132 h, 144 h, 156 h, 168 h, 192 h, 216 h, 240 h, and 264 h. (FIG. 11)

In series [15] the test system is human lung squamous cell carcinoma tumor tissues. Nature of the series: human tumor tissue chip detection. In kind it is binding. As to conditions: FIG. 12. The procedure: All tumor tissue chips used in this experiment were purchased from Shanghai Outdo Biotech Co., Ltd. The main experimental steps included: slide baking, dewaxing, antigen retrieval, endogenous peroxidase blocking, primary antibody incubation, secondary antibody incubation, diaminobenzidine (DAB) developing, hematoxylin counterstaining, and slide blocking. (FIG. 12)

Regarding IMMU-132, in [1], the “average time from administration to taking effect” value is reported as 1.9 months, the clinical effective rate is recorded as 46%, the objective remission rate is 30% and the overall survival time is 16.6 months. Besides, the progression-free survival time in series [1] is 6 months. In series [2], the clinical effective rate is 43%, the “median overall survival time” value is 9.5 months, the “median progression-free survival time” value is 5.2 months and the median remission time is 6 months. In addition, in series [2], the objective remission rate is 19%.

B1: anti-Trop2 monoclonal antibody IMB1636 (antibody, V domains shown)
VH: QVQLQQSGAELVRPGTSVKISCKASGYTFTNYWLGWVKQRPGHGLEWIGNIFPGGGYTNYNEKFKGKAILTADTSSSTAYMQLSSLTSEDSGVYFCAREGVMDYWGQGTTLTVSS
VL: DILLTQSPAILSVSPGERVSFSCRASQNIGTSIHWYQQRTNGFPRLLIKYASESISGIPSRFSGSGSGTDFTLSINSVESEDIADYYCQQSYSWPFTFGSGTKLEIK
notes: also called mouse-derived anti-Trop2 monoclonal antibody; anti-Trop2 antibody
For the molecule B1, the EC50 (read off the curve) – broadly, the concentration needed to bring the measured effect to its halfway point – in series [3] is about 5 ng/mL. Besides, in [4], the “EC50 (read off the curve)” value was about 5 ng/mL. The “EC50 (read off the curve)” value in [5] is about 5 ng/mL. Besides, in [6], binding was put at a Kd of 484 pM; the koff – broadly, the rate constant with which the complex falls apart – was 0.00073 s⁻¹; the kon (in general, a measure of how fast the partners come together) stood at 1.51e+06 M⁻¹ s⁻¹. The Ka in [7] is 3.9e+10 M⁻¹.

B2: antibody: mouse-derived anti-Trop2 monoclonal antibody (IgG1, Kappa) from hybridoma Y1636-1, CGMCC No. 18167; VL SEQ ID NO:1, VH SEQ ID NO:9 (antibody, V domains shown)
VH: MEWSGVFIFLLSVTADVHSQVQLQQSGAELVRPGTSVKISCKASGYTFTNYWLGWVKQRPGHGLEWIGNIFPGGGYTNYNEKFKGKAILTADTSSSTAYMQLSSLTSEDSGVYFCAREGVMDYWGQGTTLTVSS
VL: MVSTPQFLVFLLFWIPASRGDILLTQSPAILSVSPGERVSFSCRASQNIGTSIHWYQQRTNGFPRLLIKYASESISGIPSRFSGSGSGTDFTLSINSVESEDIADYYCQQSYSWPFTFGSGTKLEIK
modifications: mouse IgG1/kappa constant regions, no entry
With B2, the titer of antibody in series [8] was determined as 8000000. Moreover, in series [9], the ka came out at 1.057e+06 M⁻¹ s⁻¹ and the kd is 0.0007297 s⁻¹. In addition, the “affinity constant Ka” value in series [10] amounted to 3.9e+10 M⁻¹. Further, the “membrane-binding activity with tumor cell membrane” value in [11] is on record as “high membrane-binding activity”. Moreover, the “endocytosis of the antibody” value in series [12] is listed as “efficiently endocytose”. Further, the “affinity activity with tumor cell membrane” value in series [13] is recorded as “high affinity activity”. In addition, the “targeting of tumor tissues in vivo” value in [14] (mice, in vivo imaging, FIG. 11) is “highly target tumor tissues”. The “time remaining in the tumor tissue” value in [14] (mouse, in vivo) was “over 11 days”. Besides, in series [15], the “binding to human tumor tissue” value was “highly and specifically bind”.
